Results published in US8357523B2, “Beta-glucosidase variant enzymes and related polynucleotides” (Codexis, Inc., priority 2009, dated 2013).
Substitutions are numbered along the chain they refer to.

B1: 215 (protein)
chain: STAIAQEGAPPAAILHPEKWPRPATQRLIDPAVEKRVDALLKQLSVEEKVGQVIQGDIGTITPEDLRKYPLGSILAGGDSGPNGDDRAPPKEWLDLADAFYRVSLEKRPGHTPIPVLFGIDAVHGHGNIGSATIFPHNIALGMTRDPELLRRIGEVTAEEMAATGIDWTFAPALSVVRDDRWGRTYEGFSEDPEIVASYSAAIVEGVQGKYGSKDFMAPGRIVASAKHFLADGGTDQGRDQGDARISEDELIRIHNAGYPPAIDAGVLTVMASFSSWQGIKHHGHKQLLTDVLKGQMGFNGFIVGDWNAHDQVPGCTKFNCPTSLIAGLDMYMAADSWKQLYENTLAQVKDGTIPMARLDDAVRRILRVKVLAGLFEKPAPKDRPGLPGLETLGSPEHRAVGREAVRKSLVLLKNDKGTLPLSPKARVLVAGDGADNIGKQSGGWTISWQGTGNRNDEFPGATSILGGIRDAVADAGGSVEFDVAGQYKTKPDVAIVVFGEEPYAEFQGDVETLEYQPDQKQDLALLKKLKDQGIPVVAVFLSGRPMWVNPELNASDAFVAAWLPGTEGGGVADVLFTDKAGKVQHDFAGKLSYSWPRTAAQTTVNRGDADYNPLFAYGYGLTYKDKSKVGTLPEESGVP
B2: 216 (protein)
chain: B1 chain with P10A, I14T
B3: 222 (protein)
chain: B1 chain with A5T, P10A
B4: 217 (protein)
chain: B1 chain with P10S
B5: 428 (protein)
chain: SAAITQEGAAPAAMLHPEKWPRPATQRLIDPAVEKRVDALLKQLSVEEKVGQVIQGDIGTITPEDLRKYPLGSILAGGDSGPNGDDRAPPKEWLDLADAFYRVSLEKRPGHTPIPVLFGIDAVHGHNNIGSATIFPHNIALGMTRDPELLRRIGEVTAEEMAATGIDWTFAPALSVPRDDRWGRTYEGFSEDPEIVASYSAAIVEGFQGKYGSKDFMAPGRAVACAKHFLADGGTDQGRDQGDARISEDELIRIHNAGYPPAIDAGVLTVMASFSSWQGIKHHGHKQLLTDVLKGQMGFNGFIVGDWNAHDQVPGCTKFNCPTSLIAGLDMYMAADSWKQLYENTLAQVKDGTIPMARLDDAVRRILRVKVLAGLFEKPAPKDRPGLPGLETLGSPEHRTVGREAVRKSLVLLKNDKGTLPLSPKARVLVAGDGADNIGKQSGGWTISWQGTGNRNDEFPGATSILGGIRDAVADAGGSVEFDVAGQYKTKPDVAIVVFGEEPYAEFQGDVETLEYQPDQKQDLTLLKKLKDQGIPVVAVFLSGRPMWVNPELNASDAFVAAWLPGTEGGGVADVLFTDKAGKVQHDFAGKLSYSWPRTAAQTTVNRGDADYNPLFAYGYGLTYKDKSKVGTLPEESGVPAEARQNAGIYFRAGALRLPGRFL
modifications: truncated; signal peptide F-10T
B6: 409 (protein)
chain: B5 chain with P109D, P147T, T400A, Q508R, T525S
modifications: truncated; signal peptide F-10T
B7: 395 (protein)
chain: B5 chain with A3R, I61V, T400A, Q508R
modifications: truncated; signal peptide F-10T
B8: 396 (protein)
chain: B5 chain with I4S, T400A, Q508R, A601V
modifications: truncated; signal peptide F-10T
B9: 403 (protein)
chain: B5 chain with A13P, P109D, T400A, Q508R
modifications: truncated; signal peptide F-10T
B10: 406 (protein)
chain: B5 chain with A3R, A13P, P147T, E159G, T400A, Q508R
modifications: truncated; signal peptide F-10T
B11: 407 (protein)
chain: B5 chain with P109D, P147T, T400A, E502N, Q508R, H586Y
modifications: truncated; signal peptide F-10T
B12: 397 (protein)
chain: B5 chain with A3R, M161V, P177V, I203Y, A222I, D383G, T400A, Q508R
modifications: truncated; signal peptide F-10T
B13: 399 (protein)
chain: B5 chain with A3R, P109D, M356T, T400A, Q508R
modifications: truncated; signal peptide F-10T
B14: 405 (protein)
chain: B5 chain with A13P, Q508R, H586Y
modifications: truncated; signal peptide F-10T
B15: 408 (protein)
chain: B5 chain with A13P, P147T, A226G, T400A, Q508R, H586Y
modifications: truncated; signal peptide F-10T
B16: 404 (protein)
chain: B5 chain with A13P, P109D, N128K, T400A, Q508R, P597A
modifications: truncated; signal peptide F-10T
B17: 402 (protein)
chain: B5 chain with A3R, A13P, P147T, I203Y, T400A, Q508R, T525S, H586Y
modifications: truncated; signal peptide F-10T, K-21R
B18: 430 (protein)
chain: B5 chain with P109D, T400A, Q508R
modifications: truncated; signal peptide F-10T
B19: 400 (protein)
chain: B5 chain with P177V, I203Y, M356T, T400A, Q508R, N646K
modifications: truncated; signal peptide F-10T
B20: 431 (protein)
chain: B5 chain with A13P, P109D, T400A, Q508R, T525S
modifications: truncated; signal peptide F-10T
B21: 401 (protein)
chain: B5 chain with T25A, N128H, I203Y, T400A, Q508R, T525S
modifications: truncated; signal peptide F-10T
B22: 398 (protein)
chain: B5 chain with A3R, S213T, T400A, Q508R
modifications: truncated; signal peptide F-10T
B23: 393 (protein)
chain: B5 chain with A3R, I4S, T400A, Q508R
modifications: truncated; signal peptide F-10T
B24: 432 (protein)
chain: B5 chain with A3R, P147T, I203Y, T400A, E502N, Q508R, H586Y
modifications: truncated; signal peptide F-10T, I-14V
B25: 434 (protein)
chain: B5 chain with A13P, P177V, I203Y, E502N, Q508R
modifications: truncated; signal peptide F-10T
B26: 429 (protein)
chain: B5 chain with A13P, P147T, P177V, I203Y, T400A, Q508R, H586Y
modifications: truncated; signal peptide F-10T
B27: 433 (protein)
chain: B5 chain with A3R, T400A, Q508R
modifications: truncated; signal peptide F-10T
B28: 410 (protein)
chain: B5 chain with T400A, E502N, Q508R, T525S
modifications: truncated; signal peptide F-10T

experiment: High throughput cellobiose assay: fold improvement in cellobiase activity of CelA variants over a control enzyme (Tables 2A-2D, 3, 5, 6, 7); format: biochemical; conditions: 3.3 g/l cellobiose, 55° C. and pH 5.3 (incubation overnight)

Molecule	Fold improvement over Control Variant No. 94 from Table 2B
B1	++++ (++++ = 1.1 to 1.5 fold improvement over Control No. 3, Variant No. 94)
B2	++++ (++++ = 1.1 to 1.5 fold improvement over Control No. 3, Variant No. 94)
B3	++++ (++++ = 1.1 to 1.5 fold improvement over Control No. 3, Variant No. 94)
B4	++++ (++++ = 1.1 to 1.5 fold improvement over Control No. 3, Variant No. 94)

same assay, conditions: 3.3 g/l cellobiose, 65° C. and pH 5 (incubation overnight); relative to Control #5, Variant No. 366 (SEQ ID NO: 9)

Molecule	Fold Improvement over Control Variant
B5	++ (++ = 1.1 to 2.0 fold improvement over control Variant No. 366)
B6	+++ (+++ = 2.1 to 3.0 fold improvement over control Variant No. 366)
B7	++ (++ = 1.1 to 2.0 fold improvement over control Variant No. 366)
B8	++ (++ = 1.1 to 2.0 fold improvement over control Variant No. 366)
B9	++ (++ = 1.1 to 2.0 fold improvement over control Variant No. 366)
B10	++ (++ = 1.1 to 2.0 fold improvement over control Variant No. 366)
B11	+++ (+++ = 2.1 to 3.0 fold improvement over control Variant No. 366)
B12	++ (++ = 1.1 to 2.0 fold improvement over control Variant No. 366)
B13	++ (++ = 1.1 to 2.0 fold improvement over control Variant No. 366)
B14	++ (++ = 1.1 to 2.0 fold improvement over control Variant No. 366)
B15	+++ (+++ = 2.1 to 3.0 fold improvement over control Variant No. 366)
B16	++ (++ = 1.1 to 2.0 fold improvement over control Variant No. 366)
B17	++ (++ = 1.1 to 2.0 fold improvement over control Variant No. 366)
B18	++ (++ = 1.1 to 2.0 fold improvement over control Variant No. 366)
B19	++ (++ = 1.1 to 2.0 fold improvement over control Variant No. 366)
B20	++ (++ = 1.1 to 2.0 fold improvement over control Variant No. 366)
B21	++ (++ = 1.1 to 2.0 fold improvement over control Variant No. 366)
B22	++ (++ = 1.1 to 2.0 fold improvement over control Variant No. 366)
B23	++ (++ = 1.1 to 2.0 fold improvement over control Variant No. 366)
B24	++ (++ = 1.1 to 2.0 fold improvement over control Variant No. 366)
B25	++ (++ = 1.1 to 2.0 fold improvement over control Variant No. 366)
B26	++ (++ = 1.1 to 2.0 fold improvement over control Variant No. 366)
B27	++ (++ = 1.1 to 2.0 fold improvement over control Variant No. 366)
B28	+++ (+++ = 2.1 to 3.0 fold improvement over control Variant No. 366)
